Assay [1] deals with monkey integrins on CV-1 and RF/6A cells. Put plainly: flow cytometry on CV-1 (monkey) cells, detection with an antibody against the Fc domain [panel CV-1 (monkey]. On the technique in general: In flow cytometry, cells or beads pass a laser one at a time.
For assay [2], the target named is rabbit integrins on SIRC cells (rabbit corneal cells). Put plainly: flow cytometry on SIRC (rabbit cornea) cells, detection with an antibody against the Fc domain; cell of the drawn KD table, column SIRC [KD table].
The target in assay [3] is rat integrins on Rat2 cells (rat fibroblasts). Put plainly: flow cytometry on Rat2 (rat fibroblast) cells, detection with an antibody against the Fc domain; cell of the drawn KD table, column Rat2 [KD table].
Assay [4] deals with monkey integrins on CV-1 and RF/6A cells. Put plainly: flow cytometry on CV-1 (monkey) cells, bound protein detected with an antibody against the Fc domain; cell of the drawn KD table, column CV-1 [KD table].
Assay [5] shares this target. Put plainly: flow cytometry on RF/6A (monkey) cells, bound protein detected with an antibody against the Fc domain; cell of the drawn KD table, column RF/6A [KD table].
Assay [6] addresses human integrins on U87MG cells (human tumor cells). Put plainly: flow cytometry on U87MG (human) cells, bound protein detected with an antibody against the Fc domain; cell of the drawn KD table, column U87MG [KD table].

One may read the EC50 (read off the curve) as the concentration needed to bring the measured effect to its halfway point. By Kd is commonly meant a measure of binding affinity in units of concentration. “NOD201 (2.5F peptide fused to human IgG1 Fc; no linker) (Fc fusion)” came in with an EC50 (read off the curve) in assay [1] of 2000 pM. Besides, the Kd in assay [2] came to 288 pM; in assay [3], 1010 pM; in assay [4], 1500 pM; in assay [5] it was 500 pM.

B1: NOD201M (NOD201 with murine Fc domain; no linker) (Fc fusion)
chain: GCPRPRGDNPPLTCSQDSDCLAGCVCGPNGFCGEPRVPITQNPCPPLKECPPCAAPDLLGGPSVFIFPPKIKDVLMISLSPMVTCVVVDVSEDDPDVQISWFVNNVEVHTAQTQTHREDYNSTLRVVSALPIQHQDWMSGKEFKCKVNNRALPSPIEKTISKPRGPVRAPQVYVLPPPAEEMTKKEFSLTCMITGFLPAEIAVDWTSNGRTEQNYKNTATVLDSDGSYFMYSKLRVQKSTWERGSLFACSVVHEGLHNHLTTKTISRSLG
Regarding B1, the Kd in assay [6] was found to be 700 pM.

(Values after patent US20210077576A1.)
